Measured values: patent publication US20250346679A1 (INVOX PHARMA, published 2025)
Where two headings read alike, the source gives them in different places.

Columns and labels:
[1] = target: T1, human CD137, cell-surface (human, UniProt Q07011 24-255); assay: cell-based or functional assay
[2] = target: T2, cynomolgus CD137, cell-surface (cynomolgus, UniProt Q07011 24-255 (human entry)); assay: cell-based or functional assay
T2 chain: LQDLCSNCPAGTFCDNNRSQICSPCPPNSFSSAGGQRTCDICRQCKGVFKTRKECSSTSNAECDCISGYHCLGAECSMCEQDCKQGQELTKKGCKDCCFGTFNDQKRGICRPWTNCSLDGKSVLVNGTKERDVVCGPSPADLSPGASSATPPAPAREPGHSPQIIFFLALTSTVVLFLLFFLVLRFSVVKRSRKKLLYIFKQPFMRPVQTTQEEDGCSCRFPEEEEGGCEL

[3] = target: T1, human CD137, cell-surface; assay: cell-based or functional assay; remark: listed apart in the source
[4] = target: T3, human PD-L1, cell-surface (human, UniProt Q9NZQ7 19-290); assay: cell-based or functional assay
T3 sequence (Q9NZQ7 19-290): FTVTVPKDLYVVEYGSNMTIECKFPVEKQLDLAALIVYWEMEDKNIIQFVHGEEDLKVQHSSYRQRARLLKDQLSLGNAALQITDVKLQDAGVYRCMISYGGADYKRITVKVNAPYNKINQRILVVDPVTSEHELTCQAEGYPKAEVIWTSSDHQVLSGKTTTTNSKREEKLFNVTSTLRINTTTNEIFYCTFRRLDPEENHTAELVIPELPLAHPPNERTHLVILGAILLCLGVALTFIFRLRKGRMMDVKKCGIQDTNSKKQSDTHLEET

[5] = target: T3, human PD-L1, cell-surface; assay: cell-based or functional assay; remark: listed apart in the source
[6] = target: T1, human CD137, cell-surface; assay: cell-based or functional assay; remark: listed apart in the source
[7] = target: T3, human PD-L1, cell-surface; assay: cell-based or functional assay; remark: listed apart in the source
[8] = target: T2, cynomolgus CD137, cell-surface; assay: cell-based or functional assay
[9] = target: T3, human PD-L1, cell-surface; assay: flow cytometry on HEK.hPD-L1
Method: Non-specific binding was also assessed by testing binding to HEK293 parental cells lacking human PD-L1 (Flp-In T-Rex 293 cell line, Life Technologies, R780-07).
(§1) HEK293, HEK.hPD-L1 and HEK.cPD-L1 suspensions were prepared in FACS buffer (DPBS (Gibco, 14190-094) containing 0.5% BSA (Sigma, A7906)) and seeded at 1×10⁵ cell/well in 100 μl in round bottomed 96-well plates (VWR, 734-1797). […] The washed cells were resuspended in the diluted antibody mixture, incubated at 4° C. for 30 minutes, and then washed once in FACS buffer. […] Dead cells were excluded and the fluorescence in the APC channel (638 nm 660/20) was measured. The geometric mean fluorescence intensity (GMFI) values were plotted vs the log concentration of antibody and the resulting curves were fitted using the log (agonist) vs response equation in GraphPad Prism.

[10] = target: T1, human CD137, cell-surface; assay: flow cytometry on DO11.10.hCD137
Method: Non-specific binding was also assessed by testing binding to DO11.10 cells lacking CD137 expression.
as §1, with “Briefly, DO11.10, DO11.10.hCD137 or DO11.10.cCD137” for “HEK293, HEK.hPD-L1 and HEK.cPD-L1”, “(DPBS containing” for “(DPBS”

[11] = target: Human FcRn (Acro Biosystems, FCM-H5286) (human, UniProt P55899 24-297; P61769 21-119); assay: SPR, mAb^2 immobilised, FcRn in flow, pH 6.0, steady state affinity; pH 6.0
Sequence of Human FcRn (Acro Biosystems, FCM-H5286) (P55899 24-297 limits assumed, chain 1 of 2): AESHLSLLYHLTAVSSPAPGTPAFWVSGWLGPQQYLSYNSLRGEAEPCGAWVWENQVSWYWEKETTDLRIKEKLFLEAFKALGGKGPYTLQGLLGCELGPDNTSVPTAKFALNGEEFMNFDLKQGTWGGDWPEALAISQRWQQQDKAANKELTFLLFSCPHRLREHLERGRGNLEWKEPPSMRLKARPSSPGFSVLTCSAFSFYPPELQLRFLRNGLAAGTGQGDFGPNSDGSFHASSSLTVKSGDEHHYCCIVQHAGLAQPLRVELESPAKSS
Sequence of Human FcRn (Acro Biosystems, FCM-H5286) (P61769 21-119 limits assumed, chain 2 of 2): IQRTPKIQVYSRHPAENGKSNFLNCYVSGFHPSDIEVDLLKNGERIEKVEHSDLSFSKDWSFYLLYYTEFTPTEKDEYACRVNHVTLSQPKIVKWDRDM
Description: (§2) The neonatal Fc receptor (FcRn) binding is critical for antibody recycling (Martins et al., 2016). […] G1-AA/HeID1.3 was included as an isotype control IgG control lacking mutations in the CH3 domain.
(§3) Briefly, mAb² were individually coated on flow cell 2, 3 and 4 of Series S Sensor Chip CM5 (GE Healthcare, BR100530) to achieve a response of approximately 1000 RU. Flow cell 1 was activated/deactivated but left blank as a reference. Human FcRn (Acro Biosystems, FCM-H5286) or mouse FcRn (R&D systems, 9114-Fc) was dialysed and diluted in MHBS-EP⁺B pH 6.0 or pH 7.4 buffer (10 mM MES, FortéBio, 18-5026; 1×HBS-EP, GE Healthcare, BR100669; 0.1 mg/ml BSA, Sigma, A7906) and injected on flow cell 1, 2, 3 and 4 at 2000-3000 nM with 2-fold dilutions for 1 min at 80 μl/min and then allowed to dissociate in buffer for 3 min. […] Subtracted data (flow cell 2−flow cell 1, flow cell 3−flow cell 1, or flow cell 4−flow cell 1) was analysed using Biacore T200 Evaluation Software 2.0 to identify binding using the model steady state affinity.

[12] = target: T4, mouse FcRn (R&D systems, 9114-Fc) (mouse, UniProt Q61559 22-297; P01887 21-119, limits assumed); assay: as above
T4 sequence (looked up) 1: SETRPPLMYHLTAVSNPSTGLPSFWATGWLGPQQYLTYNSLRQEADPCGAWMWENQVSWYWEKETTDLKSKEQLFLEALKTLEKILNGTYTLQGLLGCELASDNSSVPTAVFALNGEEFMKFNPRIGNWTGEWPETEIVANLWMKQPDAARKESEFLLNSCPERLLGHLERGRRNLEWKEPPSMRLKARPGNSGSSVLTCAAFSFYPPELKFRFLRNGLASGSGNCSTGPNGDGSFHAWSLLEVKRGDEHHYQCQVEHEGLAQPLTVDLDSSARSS
T4 sequence (looked up) 2: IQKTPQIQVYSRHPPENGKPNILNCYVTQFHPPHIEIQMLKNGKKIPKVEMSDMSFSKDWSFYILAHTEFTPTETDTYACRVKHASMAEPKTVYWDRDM
Description: as §2, §3

B1: FS22-172-003-AA/E12v2 (bispecific antibody, human IgG1, kappa, L234A L235A)
heavy: EVQLVQSGAEVKRPGASVKVSCKASGYPFTSYGISWVRQAPGQGLEWMGWISAYSGGTNYAQKLQGRVTMTTDTSTSTAYMELRSLRSDDTAVYYCARDLFPTIFGVSYYYYWGQGTLVTVSSASTKGPSVFPLAPSSKSTSGGTAALGCLVKDYFPEPVTVSWNSGALTSGVHTFPAVLQSSGLYSLSSVVTVPSSSLGTQTYICNVNHKPSNTKVDKKVEPKSCDKTHTCPPCPAPEAAGGPSVFLFPPKPKDTLMISRTPEVTCVVVDVSHEDPEVKFNWYVDGVEVHNAKTKPREEQYNSTYRVVSVLTVLHQDWLNGKEYKCKVSNKALPAPIEKTISKAKGQPREPQVYTLPPSRDELPYIIPPYNQVSLTCLVKGFYPSDIAVEWESNGQPENNYKTTPPVLDSDGSFFLYSKLTVGADRWLEGNVFSCSVMHEALHNHYTQKSLSLSPG
light: DIQMTQSPSTLSASVRDRVIITCRASQSIGNRLAWYQHKPGKAPKLLIYEASTSETGVPSRFSGSGSGTDFTLTISSLQPEDFATYYCQQSYSTPYTFGQGTKLEIKRTVAAPSVFIFPPSDEQLKSGTASVVCLLNNFYPREAKVQWKVDNALQSGNSQESVTEQDSKDSTYSLSSTLTLSKADYEKHKVYACEVTHQGLSSPVTKSFNRGEC
notes: PD-L1 site in the Fab, CD137 site in the CH3, LALA; also called anti-human CD137/PD-L1 mAb^2
EC50, IFN-γ release, human PBMC assay [1]: 0.03 nM | EC50, IFN-γ release, cynomolgus PBMC assay [2]: 0.08 nM | EC50 (nM), hIL-2 release, CD8+ T cells, donor 171115A, HEK.hPD-L1 XL [3]: 0.24 nM | EC50 (nM), hIL-2 release, CD8+ T cells, donor 171115A, MDA-MB-231 XL [3]: 0.02 nM | EC50 (nM), hIL-2 release, CD8+ T cells, donor 171115B, HEK.hPD-L1 XL [3]: 0.31 nM | EC50 (nM), hIL-2 release, CD8+ T cells, donor 171115B, MDA-MB-231 XL [3]: 0.02 nM | EC50 (nM), IFN-γ release, human MLR [4]: 0.02 nM | Emax (pg/ml), IFN-γ release, human MLR [4]: 2630 pg/mL | EC50 (nM), IFN-γ release, human MLR [5]: 0.07 nM | EC50 (nM), IFN-γ release, CEFT antigen recall assay (CD4+ T cell activation) [6]: 0.08 nM | EC50 (nM), mouse IL-2 release, DO11.10 / LK35.2 PD-L1 blockade assay [7]: 1.27 nM | EC50 (nM) (crosslinked), mIL-2 release, DO11.10.cCD137 with HEK.cyPD-L1 [8]: 0.06 nM | Emax (pg/ml) (crosslinked), mIL-2 release, DO11.10.cCD137 with HEK.cyPD-L1 [8]: 11300 pg/mL | EC50 [9]: 3.7 nM | EC50 [10]: 6.2 nM | Kd [11]: 1120 nM | Kd [12]: 158 nM
